For orientation: Kd means the concentration at which binding is half-saturated.

Assay [1] addresses T1, TNFR2-Fas chimeric receptor (TNFR2-ED and Fas) on mouse embryonic fibroblasts (UniProt P20333 23-257; P25445 191-335).
T1 construct: extracellular domain;domain: cytoplasmic domain; Stably expressed on mouse embryonic fibroblasts
T1 sequence (looked up): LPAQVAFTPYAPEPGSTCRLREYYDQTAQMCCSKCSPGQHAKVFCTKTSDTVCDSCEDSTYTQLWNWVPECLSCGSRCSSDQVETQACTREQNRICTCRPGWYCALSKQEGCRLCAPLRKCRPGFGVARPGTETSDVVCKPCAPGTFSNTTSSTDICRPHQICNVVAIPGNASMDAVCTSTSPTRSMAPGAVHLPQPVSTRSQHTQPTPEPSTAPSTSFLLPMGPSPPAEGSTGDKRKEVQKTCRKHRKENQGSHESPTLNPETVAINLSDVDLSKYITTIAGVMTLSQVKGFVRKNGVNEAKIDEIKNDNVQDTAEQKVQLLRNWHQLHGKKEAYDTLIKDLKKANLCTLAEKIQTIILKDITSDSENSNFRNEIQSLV
Description: indirect immunofluorescence flow cytometry on transfected mouse embryonic fibroblasts. On the procedure: These transfectants were incubated on ice for two hours with 2.5 μg/ml of IZI-06.1-Fab (A-C, E, white histograms), the TNFR1-specific antibody mAb225 (D and F, white histograms), the TNFR2-specific antibody 80M2 (B, white+bold histogram) or were only treated with secondary antibodies as control (gray histograms). The incubation buffer was PBA (PBS+0.05% bovine serum albumin+0.02% NaN3). Cells were incubated with FITC-labeled secondary antibodies (80M2 and mAb225: Goat anti-murine IgG; IZI-06.1 Fab: Goat anti-HIS-tag) and cells were analyzed by flow cytometry. Cells were gated for viable cells and total fluorescence intensities (MnX) are given for each antibody. (Con=control values).
A His-tag positive IZI-06.1-Fab is used to determine specificity of TNFR1 binding or TNFR1-Fas binding, respectively as well as for characterization of the epitope recognized by the antibody derivative. […] This construct, however, is readily detected by another TNFR1-specific mab, mab225 (FIG. 7D).

In assay [2] the target is T2, TNFR1-Fas chimeric receptor (extracellular domain of TNFR1 and cytoplasmic domain of death receptor Fas) on … (human, UniProt P19438 30-211; P25445 191-335).
T2 construct: extracellular domain;domain: cytoplasmic domain; Stably expressed on mouse embryonic fibroblasts; also called TNFR1-Fas chimera
T2 sequence (looked up): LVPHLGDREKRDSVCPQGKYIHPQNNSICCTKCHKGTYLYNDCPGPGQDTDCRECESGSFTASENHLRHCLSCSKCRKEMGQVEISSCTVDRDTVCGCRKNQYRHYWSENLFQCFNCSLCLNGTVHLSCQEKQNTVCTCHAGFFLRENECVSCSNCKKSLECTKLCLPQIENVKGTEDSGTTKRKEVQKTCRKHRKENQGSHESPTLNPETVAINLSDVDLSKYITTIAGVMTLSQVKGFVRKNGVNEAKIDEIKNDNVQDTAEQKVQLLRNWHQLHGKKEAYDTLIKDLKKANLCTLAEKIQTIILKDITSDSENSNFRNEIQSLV
In words: saturation binding of 125I-labelled Fab to TNFR1-Fas positive mouse fibroblasts on ice, one-site hyperbola and Scatchard plot. As for the experimental part: Nonspecific binding has been subtracted.
To determine the affinity (KD value) of IZI-06.1 Fab, 200.000 TNFR1-Fas positive cells are incubated on ice for three hours with increasing concentrations of labelled IZI-06.1 (2.5-50 ng in a total volume of 150 μl). As binding buffer, phosphate buffered saline+2% fetal calf serum+0.02% NaN₃ is used. Non-specific binding is determined by co-incubating cells with the 180-fold respective concentration of unlabelled IZI-06.1. Bound ¹²⁵I-Fab is determined with a gamma-counter and resulting data is used to fit a one-site binding hyperbola that contains the saturation binding constant KD: […]

B1: IZI-06.1 Fab (Fab, V domains shown)
VH: QVQLVQSGAEVKKPGSSVKVSCKASGYTFTDFYINWVRQAPGQGLEWIGEIYPYSGHAYYNEKFKARVTITADKSTSTAYMELSSLRSEDTAVYYCARWDFLDYWGQGTTVTVSS
VL: DIVMTQSPLSLPVTPGEPASISCRSSQSLLHSNGNTYLHWYLQKPGQSPQLLIYTVSNRFSGVPDRFSGSGSGTDFTLKISRVEAEDVGVYYCSQSTHVPYTFGGGTKVEIKR
modifications: 125I-labelled (chloramine T method) in the saturation binding study
notes: Fab expressed in the E. coli periplasm; the pelB leader is removed; also called humanized H398-Fab; Fab IZI-06.1; not shown: CH1 domain of the human immunoglobulin gamma1 heavy chain
For the molecule B1, the binding result in assay [1] is recorded as “no binding (tested: 2.5 µg/ml)”. Besides, the Kd in assay [2] is 0.778 nM.

For the origin of these results see patent publication US20100150916A1 (UNIVERSITAET STUTTGART, published 2010).
